Test results reported in patent US20040228866A1, “Suppressor genes” (Ludwig Institute for Cancer Research, priority 2000, published 2004).

Columns and labels:
[1] = molecular target: T1, p53 (Homo sapiens, UniProt P04637); experiment: Transient luciferase reporter assay of p53 transactivation function in Saos-2 cells; assay type: cell-based; conditions: for effect on ASPP stimulation of p53 transactivation function on the Bax promoter: co-expressed with p53 and ASPP1 or ASPP2
T1 construct: expressed in transfected cells
T1 sequence (P04637 whole entry): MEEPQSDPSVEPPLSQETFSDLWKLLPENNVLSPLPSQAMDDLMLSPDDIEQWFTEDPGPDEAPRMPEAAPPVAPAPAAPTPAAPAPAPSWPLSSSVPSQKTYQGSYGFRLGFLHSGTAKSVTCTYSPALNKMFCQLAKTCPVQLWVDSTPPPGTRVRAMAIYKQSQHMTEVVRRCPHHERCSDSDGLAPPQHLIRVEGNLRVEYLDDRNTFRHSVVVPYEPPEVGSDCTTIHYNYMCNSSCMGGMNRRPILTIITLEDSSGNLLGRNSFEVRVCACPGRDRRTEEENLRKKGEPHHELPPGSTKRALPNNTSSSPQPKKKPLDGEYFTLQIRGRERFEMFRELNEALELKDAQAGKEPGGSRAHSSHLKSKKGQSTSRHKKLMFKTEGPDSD
Procedure: (§1) The amount of luciferase expression was determined as previously described in Samuels-Lev et al. (Mol. Cell 8:781-94, 2001, herein incorporated by reference).
(§2) The amount of transactivation function was determined as described in Example 4.
(§3) To determine the amount of protein expression, Saos-2 cells (5×10^5) were plated 24 hours prior to transfection in 6 cm dishes. […] To determine the amount of gene activation, after transfection, the cells were lysed in Reporter Lysis Buffer 16-24 hours post-wash and assayed using the Luciferase Assay kit (Promega, Wis.). The fold activation of a particular reporter was determined by the activity of the transfected plasmid above the activity of vector alone.
(§4) The expression level of transfected proteins was detected using 40 μg of the respective lysates using the antibodies V5, DX.5410, DO1, 4A4 and p73. […] Results were derived from at least three independent experiments.

[2] = system: p53; experiment: as above; assay type: cell-based; conditions: expressed without p53, FIG. 8B
Procedure: as §1, §2, §3, §4

[3] = system: Saos-2 cells; experiment: Apoptosis by flow cytometry (CD20-gated, sub-G1 DNA content) in transfected Saos-2 cells; assay type: cell-based
Procedure: Apoptosis was identified by the expression of the co-transfected cell surface marker CD20, as described in Samuels-Lev et al. (Mol. Cell 8:781-94, 2001, herein incorporated by reference).
The number of apoptotic cells was determined using the methods described in Example 6.
Cells (10^6) were plated 24-48 hours prior to transfection in 10 cm plates. Cells were grown in DMEM supplemented with 10% FCS and transfected with 2 μg of a plasmid expressing CD20 as a transfection marker. Increasing amounts of ASPP1 and ASPP2 were transfected (7.5 μg, 15 μg and 25 μg). 36 hours after the transfection, both attached and floating cells were harvested and analysed using flow cytometry as follows. The transfected cells were gated based on the expression of CD20. The percentage of apoptotic cells was measured by the accumulation of cells with a sub-G1 DNA content derived from at least three individual experiments.
The transfected cells were analyzed by flow cytometry as described in Example 6.

[4] = system: U2OS and MCF7 cells; experiment: Apoptosis by FACS in U2OS and MCF7 cells expressing wild-type p53, with or without cisplatin; assay type: cell-based, human; conditions: for effect on cisplatin-induced apoptosis: transfected before cisplatin, FIGS. 7B and 7D
Procedure: The transfected cells were gated, and the apoptotic cells identified by FACS as described in Example 6.
Before exposure to cisplatin (5 and 3 μg/ml respectively), U2OS and MCF7 cells were transfected with plasmids encoding HPV16 E6, iASPP, or 53BP2. Thirty hours later, cells were harvested and analysed as above.
Fragments from the 5′ ends of ASPP1, ASPP2 and iASPP cDNA were cloned into a mammalian expression vector in an antisense orientation and their ability to inhibit the protein synthesis determined in vitro. The antisense nucleic acid molecules were amplified by PCR on the respective plasmid clones using primers spanning the following nucleotide regions (relative to the initial ATG): −74 to 923; −253 to 839 and −37 to 536 for ASPP1, ASPP2 and iASPP respectively. The amplified segments were purified with the QIAquick PCR purification kit (QIAGEN) and ligated in the pcDNA3.1/V5-His TOPO vector (Invitrogen) according to the manufacturer's instructions.
U2OS and MCF-7 cells were transfected with the various expression plasmids prior to the treatment with cisplatin and analyzed using FACS as described above.
To determine the anti-apoptotic role of iASPP, both U2OS and MCF-7 cells were transfected with antisense iASPP and cells analyzed as described above. […] A small increase in apoptotic cells was consistently detected (FIG. 7D).

[5] = molecular target: T1, p53; experiment: Co-immunoprecipitation with p53 in transfected Saos-2 cells; assay type: binding
Procedure: The cells were lysed in NP40 lysis buffer and 1000 μg of lysate immunoprecipitated with antibodies to iASPP bound to Protein G beads.

[6] = system: rat embryo fibroblasts (REFs); experiment: Transformation of rat embryo fibroblasts with E7; assay type: cell-based; conditions: co-transfected with E7, FIG. 10A
[7] = system: MCF-7 cells; experiment: Cellular resistance to the cytotoxic effect of cisplatin in MCF-7 cells; assay type: cell-based, human; conditions: iASPP-expressing versus non-expressing cells, FIG. 10B
Description: Many chemotherapy drugs are DNA-damage agents and induce apoptosis via p53-dependent pathway. […] The cellular resistance to the cytotoxic effect of cisplatin were compared between iASPP-expressing and non-expressing iASPP MCF-7 cells. Expression of iASPP enhanced the cellular resistance by about 2.5 fold (FIG. 10B). Such an increase in cellular resistance to cisplatin is significant with respect to cancer treatment.

B1: Ikb: the inhibitor of p65 Rel A (protein, UniProt P25963 1-317, looked up)
NF-kappa-B inhibitor alpha: MFQAAERPQEWAMEGPRDGLKKERLLDDRHDSGLDSMKDEEYEQMVKELQEIRLEPQEVPRGSEPWKQQLTEDGDSFLHLAIIHEEKALTMEVIRQVKGDLAFLNFQNNLQQTPLHLAVITNQPEIAEALLGAGCDPELRDFRGNTPLHLACEQGCLASVGVLTQSCTTPHLHSILKATNYNGHTCLHLASIHGYLGIVELLVSLGADVNAQEPCNGRTALHLAVDLQNPDLVSLLLKCGADVNRVTYQGYSPYQLTWGRPSTRIQQQLGQLTLENLQMLPESEDEESYDTESEFTEFTEDELPYDDCVFGGQRLTL
What does the source list for B1?
inhibition of the transactivation function of p53 on the Bax promoter ([1]; 50 ng co-expressed with p53): very little inhibition; transactivation function of p53 on the mdm2 promoter ([1]; FIG. 8C, Ikb even in the presence of ASPP2): hardly decreased; effect on ASPP stimulation of p53 transactivation function on the Bax promoter [1]: significantly decreased ASPP2-mediated stimulation; inhibition of Bax promoter reporter activity [2]: did not show any detectable inhibition; percentage of apoptotic cells, co-expressed with p53 and ASPP2 ([3]; Example 11, p53+ASPP2 30%): 16%; percentage of apoptotic cells, co-expressed with p53 ([3]; Example 11, p53 alone […]%): 11%; percentage of apoptotic cells, expressed alone ([3]; Example 11, vector alone 4.6%): 7.2%

B2: ASPP2/53BP2: 528 amino acid C-terminal polypeptide, amino acids 600-1128 of ASPP2 (protein)
chain: KPQTVAASSIYSMYTQQQAPGKNFQQAVQSALTKTHTRGPHFSSVYGKPVIAAAQNQQQHPENIYSNSQGKPGSPEPETEPVSSVQENHENERIPRPLSPTKLLPFLSNPYRNQSDADLEALRKKLSNAPRPLKKRSSITEPEGPNGPNIQKLLYQRTTIAAMETISVPSYPSKSASVTASSESPVEIQNPYLHVEPEKEVVSLVPESLSPEDVGNASTENSDMPAPSPGLDYEPEGVPDNSPNLQNNPEEPNPEAPHVLDVYLEEYPPYPPPPYPSGEPEGPGEDSVSMRPPEITGQVSLPPGKRTNLRKTGSERIAHGMRVKFNPLALLLDSSLEGEFDLVQRIIYEVDDPSLPNDEGITALHNAVCAGHTEIVKFLVQFGVNVNAADSDGWTPLHCAASCNNVQVCKFLVESGAAVFAMTYSDMQTAADKCEEMEEGYTQCSQFLYGVQEKMGIMNKGVIYALWDYEPQNDDELPMKEGDCMTIIHREDEDEIEWWWARLNDKEGYVPRNLLGLYPRIKPRQRSLA
modifications: left off: small tags and cut ends
notes: 528 amino acid C-terminal polypeptide, amino acids 600-1128 of ASPP2
B2 was tested. Which “reduction of the transactivation function of p53” value ([1]; co-expressed with p53, FIG. 3) did it give?
Its value is “about 50%”.

What about the “effect on ASPP stimulation of p53 transactivation function on the Bax promoter” value [1] of the same molecule?
The value was “inhibited ASPP2 stimulation”.

And the “stimulation of p21waf1 and PG synthetic promoters” value ([1]; co-expression with p53)?
The value was “slight stimulation”.

And the “stimulation of the promoter activity of mdm2 and cyclin G” value ([1]; co-expression with p53)?
Its value is “failed to stimulate”.

What about the apoptotic cells ([3]; p53, ASPP2 and ASPP2/53BP2 all co-expressed, FIG. 4C) of the same molecule?
Its apoptotic cells is 30%.

And the “effect on cisplatin-induced apoptosis” value [4]?
The value was “inhibited cisplatin-induced apoptosis to a similar extent as E6”.

B3: E6: viral oncoprotein from human papilloma virus that binds p53 and targets it for degradation (protein, UniProt P03126 1-158, looked up)
Protein E6: MHQKRTAMFQDPQERPRKLPQLCTELQTTIHDIILECVYCKQQLLRREVYDFAFRDLCIVYRDGNPYAVCDKCLKFYSKISEYRHYCYSLYGTTLEQQYNKPLCDLLIRCINCQKPLCPEEKQRHLDKKQRFHNIRGRWTGRCMSCCRSSRTRRETQL
How did the “percentage of transfected cells that die of apoptosis after cisplatin” value ([4]; cisplatin 5 and 3 μg/ml (U2OS, MCF7), thirty hours) turn out when B3 was run?
Its value is “below 15%”.

And the “effect on apoptosis induced by ASPP1 or ASPP2” value ([4]; co-expression)?
Its value is “inhibited the apoptosis induced by ASPP1 or ASPP2”.

And the “effect on cisplatin-induced apoptosis” value [4]?
Its value is “reduced the percentage of apoptotic cells to half”.

B4: ASPP2/bBP2: 1005 amino acid polypeptide, amino acids 123-1128 of ASPP2 (protein)
chain: RMDLTLAELQEMASRQQQQIEAQQQLLATKEQRLKFLKQQDQRQQQQVAEQEKLKRLKEIAENQEAKLKKVRALKGHVEQKRLSNGKLVEEIEQMNNLFQQKQRELVLAVSKVEELTRQLEMLKNGRIDSHHDNQSAVAELDRLYKELQLRNKLNQEQNAKLQQQRECLNKRNSEVAVMDKRVNELRDRLWKKKAALQQKENLPVSSDGNLPQQAASAPSRVAAVGPYIQSSTMPRMPSRPELLVKPALPDGSLVIQASEGPMKIQTLPNMRSGAASQTKGSKIHPVGPDWSPSNADLFPSQGSASVPQSTGNALDQVDDGEVPLREKEKKVRPFSMFDAVDQSNAPPSFGTLRKNQSSEDILRDAQVANKNVAKVPPPVPTKPKQINLPYFGQTNQPPSDIKPDGSSQQLSTVVPSMGTKPKPAGQQPRVLLSPSIPSVGQDQTLSPGSKQESPPAAAVRPFTPQPSKDTLLPPFRKPQTVAASSIYSMYTQQQAPGKNFQQAVQSALTKTHTRGPHFSSVYGKPVIAAAQNQQQHPENIYSNSQGKPGSPEPETEPVSSVQENHENERIPRPLSPTKLLPFLSNPYRNQSDADLEALRKKLSNAPRPLKKRSSITEPEGPNGPNIQKLLYQRTTIAAMETISVPSYPSKSASVTASSESPVEIQNPYLHVEPEKEVVSLVPESLSPEDVGNASTENSDMPAPSPGLDYEPEGVPDNSPNLQNNPEEPNPEAPHVLDVYLEEYPPYPPPPYPSGEPEGPGEDSVSMRPPEITGQVSLPPGKRTNLRKTGSERIAHGMRVKFNPLALLLDSSLEGEFDLVQRIIYEVDDPSLPNDEGITALHNAVCAGHTEIVKFLVQFGVNVNAADSDGWTPLHCAASCNNVQVCKFLVESGAAVFAMTYSDMQTAADKCEEMEEGYTQCSQFLYGVQEKMGIMNKGVIYALWDYEPQNDDELPMKEGDCMTIIHREDEDEIEWWWARLNDKEGYVPRNLLGLYPRIKPRQRSLA
For B4, which “stimulation of the transactivation function of p53” value ([1]; versions of ASPP2 co-expressed with p53, FIG. 3) is on record?
Its value is “about 2 fold”.

And the “interaction with p53 by immunoprecipitation and western blot” value [5]?
The value was “interacted with p53 in vivo”.

B5: iASPP: Inhibitor of Apoptosis Stimulating Proteins, p65 rel A binding protein of 315 amino acids, SEQ ID NO: 6 (protein)
chain: MWMKDPVARPLSPTRLQPALPPEAQSVPELEEVARVLAEIPRPLKRRGSMEQAPAVALPPTHKKQYQQIISRLFHRHGGPGPGGRSQSCPPSLRDLRPGQGPLLLPHQLPFHRPAPSQSSPPEQPQSMEMRSVLRKAGSPRKARRARLNPLVLLLDAALTGELEVVQQAVKEMNDPSQPNEEGITALHNAICGANYSIVDFLITAGANVNSPDSHGWTPLHCAASCNDTVICMALVQHGAAIFATTLSDGATAFEKCDPYREGYADCATYLADVEQSMGLMNSGAVYALWDYSAEFGDELSFREGESVTVLRRDGPEETDWWWAALHGQEGYVPRNYFGLFPRVKPQRSKV
modifications: homo sapiens
Which “transforming function of E7” value [6] does the source give for B5 here?
The value was “enhanced the transforming function of E7 significantly”.

And the “effect on ASPP stimulation of p53 transactivation function on the Bax promoter” value [1]?
Its value is “decreased or eliminated the ability”.

What about the “interaction with p53 by immunoprecipitation and western blot” value [5] of the same molecule?
The value was “interacted with p53”.

And the “enhancement of cellular resistance to cisplatin” value [7]?
The value was “about 2.5 fold”.

What about the “effect on the apoptotic function of wild type p53” value ([3]; co-expressed with p53) of the same molecule?
Its value is “small inhibitory effect”.

And the “effect on the enhancement of p53 apoptotic function by ASPP1 and ASPP2” value ([3]; co-expressed with p53 and ASPP1 or ASPP2)?
Its value is “decreased or inhibited the enhanced apoptotic function of p53”.

And the “apoptosis when expressed alone” value ([3]; no p53 co-expressed)?
The value was “did not induce apoptosis on its own”.

What about the “effect on cisplatin-induced apoptosis” value [4] of the same molecule?
The value was “inhibited cisplatin-induced apoptosis to a similar extent as E6”.
